± gives the uncertainty stated by the source.

The values below come from the supplement of paper PMC12042874.

The nature of the data set: amyloid nucleation score (Sup35N fusion, yeast selection) (log enrichment); library NNK2; higher = more nucleation; inactive = no reads after selection. A digest of the protocol: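 Nucleation score is defined as the DiMSum log enrichment of output over input reads, with centring on the mode score of non-aggregating sequences. A minimum of 100 input reads was required for each sequence. Reads came from Illumina sequencing of plasmid inserts from psi-negative yeast expressing Sup35N fused to peptides of 20 random codons, induced with 100 μM copper sulfate for 24 hours and grown 7 days at 30°C on medium lacking adenine and uracil.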
In the case of HYRYEVDYLSELCIPDGMPM, the amyloid nucleation score is -0.197 ± 0.24.

On to FYLISWKWVKHVGIFA, for which the amyloid nucleation score is -0.618 ± 1.1.

As to PKKSVGKLNIILEVLPSTAV, the amyloid nucleation score was -0.666 ± 0.53.

With FMLRICPGYAKGRCISWHSR, the amyloid nucleation score stood at 0.396 ± 0.46.

The sequence TLNNCRPFCLLELANLINRD returned an amyloid nucleation score of 3.4 ± 0.058.

YINVALWIMSFSGSVWGKEP yielded an amyloid nucleation score of 4.55 ± 0.064.

ISTINNGYVFRLYLGSCILD returned an amyloid nucleation score of 6.02 ± 0.081.

AIFGFTVVLVMFMRFLQDTC registered an amyloid nucleation score of 0.732 ± 0.22.

Consider DLLGIEPTTVCFYFDTDIRH, for which the amyloid nucleation score came to 2.9 ± 0.07.

In the case of HCYSPSKIRVNAIFLHIFL, the amyloid nucleation score result was “inactive”.

The sequence ETGSIVVKMLPSRWGSLRLV registered an amyloid nucleation score of 3.19 ± 0.11.

Sequence VCLCCYYIYYERFSNGFFLL came in with an amyloid nucleation score of 5.02 ± 0.058.

YKRHVGLRRNTLRQGYLLWF registered an amyloid nucleation score of -0.547 ± 1.1.

As to STLWVAKGH, the amyloid nucleation score is -0.064 ± 1.1.

For TYYSLSLVAIMGAR, the amyloid nucleation score came out at 1.82 ± 0.2.

With TPPTHWSFFMIWARCEKLGG, the amyloid nucleation score is -1.01 ± 0.64.

As for IMIMTGWS, the amyloid nucleation score was -0.984 ± 0.44.

TLGNKFLKSWYMGASKTMCV registered an amyloid nucleation score of -1.78 ± 0.75.

As for TLFSSRRYSVGERSQVTCLI, the amyloid nucleation score was -0.492 ± 0.55.

As for FNTSTAFESTDVKSKVM, the amyloid nucleation score is -1.22 ± 1.1.

Sequence YRLIYFVVLFEFLSVNR registered an amyloid nucleation score of -0.089 ± 0.79.

Consider YTSSCILGRTFPVLKCNIDY, for which the amyloid nucleation score is -1.33 ± 0.76.

Consider SLSLSSVERNGAANSAREFG, for which the amyloid nucleation score was determined as 0.647 ± 0.31.

Sequence NFRSVFFAMCRSCVF gave an amyloid nucleation score of -0.145 ± 0.25.

Sequence VFKLCTSPFSCLIGRMGGTD showed an amyloid nucleation score of 9.172 ± 0.063.

Sequence YFRSYLLHTLLG yielded an amyloid nucleation score of 0.479 ± 0.45.

With RAFIINWALFGTRH, the amyloid nucleation score entry was “inactive”.

Regarding YYEYQVIYSVCSMRI, the amyloid nucleation score was -0.31 ± 1.

For the sequence RYGGRMAMRINYISIMSADY, the amyloid nucleation score turned out to be 0.138 ± 0.47.

As to FCSGVLQMLLISLDNLGRVS, the amyloid nucleation score was -0.017 ± 1.

In the case of IFYWLIHHRLMYDFFCRVLT, the amyloid nucleation score is -0.995 ± 0.76.

Consider TQLLQHGGGFRSRISSRLGR, for which the amyloid nucleation score came to 1.21 ± 0.41.

Sequence MFFSFNVFDFGPL returned an amyloid nucleation score of 4.698 ± 0.036.

As for PHAHRNANLVWHQGKAPKGG, the amyloid nucleation score was found to be 1.12 ± 0.53.

The sequence TLNSRWVNNSPVEM registered an amyloid nucleation score of -0.12 ± 1.

Take DPVRWRVKFFFYDSEVCGPL: the amyloid nucleation score stood at 2.73 ± 0.17.

For TFHFQTRLCYLALYDHAIYA, the amyloid nucleation score is -0.242 ± 0.79.

As to ITPVRTVRMLSRMFNMLSQL, the amyloid nucleation score worked out at 4.83 ± 0.056.

For IGWTFIHVPCSAQRFVAIVS, the amyloid nucleation score is 0.827 ± 0.51.

VLSEYGDTNYKIQGRATCGK: the amyloid nucleation score came to 0.928 ± 0.6.

Sequence THLHCCYRETISDP yielded an amyloid nucleation score of 0.175 ± 0.33.

As to FVSFSVGWTLCADMNLRMCF, the amyloid nucleation score stood at 1.24 ± 0.22.

Turning to VFFWLQNFEVLWPMEARVWE, the amyloid nucleation score amounted to 4.14 ± 0.096.

Sequence NWGSRNFCW returned an amyloid nucleation score of -1.26 ± 1.1.

The sequence ILYGLSVQFLGLFCSYCKSS came in with an amyloid nucleation score of 6.013 ± 0.058.

For the sequence ASGEVMYVNHYVFPQAFTDE, the amyloid nucleation score entry is “inactive”.

SFSCFVCCDQHKSRGSVWHY: the amyloid nucleation score is 8.683 ± 0.076.

KYTCLVMAL: the amyloid nucleation score was 1.11 ± 0.28.

As to NLHYHSSTSSTRNFKYGCAF, the amyloid nucleation score entry is “inactive”.

For the sequence SCNDANILSMSVVWVLRTGE, the amyloid nucleation score turned out to be 3.12 ± 0.13.

With IWVYFTQHRWRLGKNVGQSC, the amyloid nucleation score came out at 0.586 ± 0.51.

Consider VFNWLNRGEESWDVVLVV, for which the amyloid nucleation score entry was “inactive”.

As for PNPLSMLRLYRNKASVFSIK, the amyloid nucleation score was 0.745 ± 0.41.

In the case of TVRLFFLG, the amyloid nucleation score was determined as 3.98 ± 0.11.

Regarding NYYGSVTRHFLSFLF, the amyloid nucleation score result is “inactive”.

The sequence EVRFSILFGSVIKRTV showed an amyloid nucleation score of 1.09 ± 0.21.
